The target of test [1] is T1, monomeric SDF-1 (human, UniProt P48061 22-89).
T1 construct: also called monomeric form of SDF-1; SDF-1 at low density on a CM5 chip
Put plainly: SPR (Biacore), low density of SDF-1 covalently attached to CM5 chip, analyte at 10-50 nM.

Test [2] has as its target T2, recombinant human SDF-1α (Peprotech) (human, UniProt P48061 22-89).
T2 construct: Bought protein (Peprotech, cat. 300-28A); also called rh SDF-1α; Stromal cell-Derived Factor-1
Put plainly: SPR (Biacore), antibody amine-coupled to CM5 chip, SDF-1 flowed at 5-40 nM right after dilution to maximize the dimer population, 1:1 Langmuir fit. The procedure: The antigen-antibody association kinetics was followed for 2 minutes and the dissociation kinetics was followed for 8 minutes. The association and dissociation curves were fit to a 1:1 Langmuir binding model using BIAevaluation software (Biacore AB).

Test [3] addresses T1, monomeric SDF-1. Put plainly: SPR (Biacore), low density of SDF-1 covalently attached to CM5 chip, analyte at 100-500 nM.
Test [4] has as its target T2, recombinant human SDF-1α (Peprotech). Put plainly: cell-based or functional assay.
Test [5] has the same target. Put plainly: radio-labeled ligand binding assay: the antibody blocks binding of 100 pM 125I-SDF-1 to CEM cells; unit taken from the axis 'Ab in nM'. From the text:
(§1) An irrelevant antibody with the same isotype was used as a negative control.

For test [6] the target is unchanged. Put plainly: radio-labeled ligand binding assay: the antibody blocks binding of 100 pM 125I-SDF-1α to HuVEC cells (GAGs, no CXCR4); unit taken from the axis 'Ab conc in nM'.
Description: as §1

T1 sequence (P48061 22-89 limits assumed): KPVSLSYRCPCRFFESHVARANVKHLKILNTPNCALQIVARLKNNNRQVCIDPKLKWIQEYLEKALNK
T2 sequence (P48061 22-89 limits assumed): as above

B1: 1C6 human monoclonal antibody (antibody, V domains shown)
VH: EVQLVESGRGLVQPGGSLRLSCAASGFTFSSYWMSWVRQAPGKGLEWVANMNQDGSEKYYVDSVKGRFTISRDNAKNSLYLQMNSLRAEDTAVYYCARDLTGPYYYDYYGMDVWGQGTTVTVSS
VL: AIRMTQSPSSVSASVGDRVTITCRASQGISSALAWYQQTPGKAPKLLIYDASSLESGVPSRFSGSGSGTDFTLTISSLQPEDFATYYCQQFNSYPRTFGQGTKVEIK
notes: Whole human monoclonal antibody with kappa light chain (VK L18), from a HuMAb Mouse; also called Z1/C6; mAb Z group antibody
In the test with monomeric SDF-1 [1], B1 showed a Kd of 3.6 nM, an off-rate constant (koff) of 0.0004 s⁻¹ and a kon of 110000 M⁻¹ s⁻¹. In test [2], the equilibrium dissociation constant (Kd) turned out to be 0.46 nM, the koff worked out at 0.00064 s⁻¹ and the kon worked out at 1.4e+06 M⁻¹ s⁻¹.

B2: 1D3 human monoclonal antibody (antibody, V domains shown)
VH: EVQLVQSGAEVKKPGASVKVSCKVSGYTLTKLSVHWVRQAPGKGLEWMGSFDPEDGETIYSQRFQGRVTMTEDTSTDTAYMELTSLRSEDTAVYYCATEGQWLVAYYGMDVWGQGTTVTVSS
VL: EIVLTQSPSSLSASVGDRVTITCRASQGISSALAWYQQKPGKAPKLLIYDASSLESGVPSRFSGSGSGTDFTLTISSLQPEDFATYYCQQFNSYPLTFGGGTKVEIK
notes: Whole human monoclonal antibody with kappa light chain (VK L18), from a KM Mouse; also called B1/D3; mAb B group antibody
In the test with monomeric SDF-1 [3], B2 gave a Kd of 151 nM, a koff of 0.0017 s⁻¹ and a kon of 11000 M⁻¹ s⁻¹. Also, in test [2], the equilibrium dissociation constant (Kd) is 0.63 nM, the koff stood at 0.0005 s⁻¹ and the kon was determined as 800000 M⁻¹ s⁻¹.

B3: 2A5 human monoclonal antibody (antibody, V domains shown)
VH: QVQLVQSGGGLVQPGGSLRLSCAASGFTFSSYWMSWVRQAPGKGLEWVANMNQDGSEKYYVDSVKGRFTISRDNAKNSLYLQMNSLRAEDTAVYYCARDLTGPYYYDYYGMDVWGQGTTVTVSS
VL: DIQMIQSPSSLSASVGDRVTITCRASQGISSALAWYQQKPGKAPKLLIYDASSLESGVPSRFSGSGSGTDFTLTISSLQPEDFATYYCQQFNSYPRTFGQGTKVEIK
notes: Whole human monoclonal antibody with kappa light chain (VK L18), from a HuMAb Mouse; also called Z2/A5; Z2A5
For the molecule B3, the “EC50, inhibition of SDF-1α (5 nM)-induced migration of CEM cells (Fluorescent Units)” value in test [4] came out at 0.543 nM. In the test with monomeric SDF-1 [1], this molecule came in with a Kd of 4.6 nM, a koff of 0.00045 s⁻¹ and a kon of 96000 M⁻¹ s⁻¹. For the same molecule, in test [2], the Kd is 0.37 nM, the koff stood at 0.0011 s⁻¹ and the on-rate constant (kon) came to 2.9e+06 M⁻¹ s⁻¹. Further, the EC50 in test [5] was 0.347 nM. In addition, the EC50 in test [6] was determined as 0.0637 nM.

B4: 1H2 human monoclonal antibody (antibody, V domains shown)
VH: QVQLVQSGAEVKKPGASVKVSCKVSGYTFTKLSVHWVRQAPGKGLEWMGSFDPEDGETIYSQRFQGRVTMTEDTSTDTAYMELSSLRSEDTAVYYCATEGQWLVAYYGMDVWGQGTMVTVSS
VL: EIVLTQSPSSLSASVGDRVTITCRASQGISSALAWYQQKPGKAPKLLIYDASSLESGVPSRFSGSGSGTDFTLTISSLQPEDFATYYCQQFNSYPLTFGGGTKVEIK
notes: Whole human monoclonal antibody with kappa light chain (VK L18), from a KM Mouse; also called B1/H2; B1H2
Turning to B4, the “EC50, inhibition of SDF-1α (5 nM)-induced migration of CEM cells (Fluorescent Units)” value in test [4] worked out at 0.498 nM. Moreover, the Kd with monomeric SDF-1 [3] was 176 nM; in test [2], 1.32 nM. Further, the results for the koff (with monomeric SDF-1 [3]; in test [2]) were 0.0016 s⁻¹ and 0.00084 s⁻¹, respectively. The kon is 9100 M⁻¹ s⁻¹ with monomeric SDF-1 [3] and 600000 M⁻¹ s⁻¹ in test [2]. The EC50 is 0.117 nM in test [5] and 0.013 nM in test [6].

The values above are taken from US20100158902A1 (ONO PHARMACEUTICAL, published 2010).
